The target in assay [1] is neuromedin B receptor (human) (UniProt P28336).
In assay [2] the target is human bombesin receptor subtype 3 (human) (UniProt P32247).
Chain of human bombesin receptor subtype 3 (human) (P32247 whole entry): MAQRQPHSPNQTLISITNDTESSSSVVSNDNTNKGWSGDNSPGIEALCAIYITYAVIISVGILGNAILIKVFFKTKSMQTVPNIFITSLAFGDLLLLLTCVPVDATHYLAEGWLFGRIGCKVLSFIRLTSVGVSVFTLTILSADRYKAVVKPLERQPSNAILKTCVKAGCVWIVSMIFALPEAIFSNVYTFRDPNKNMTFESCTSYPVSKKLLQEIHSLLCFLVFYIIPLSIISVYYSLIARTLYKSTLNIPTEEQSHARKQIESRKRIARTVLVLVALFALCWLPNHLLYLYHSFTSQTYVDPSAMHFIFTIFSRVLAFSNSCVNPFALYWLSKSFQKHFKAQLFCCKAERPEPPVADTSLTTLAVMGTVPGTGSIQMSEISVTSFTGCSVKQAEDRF

Chain of neuromedin B receptor (human) (P28336 whole entry): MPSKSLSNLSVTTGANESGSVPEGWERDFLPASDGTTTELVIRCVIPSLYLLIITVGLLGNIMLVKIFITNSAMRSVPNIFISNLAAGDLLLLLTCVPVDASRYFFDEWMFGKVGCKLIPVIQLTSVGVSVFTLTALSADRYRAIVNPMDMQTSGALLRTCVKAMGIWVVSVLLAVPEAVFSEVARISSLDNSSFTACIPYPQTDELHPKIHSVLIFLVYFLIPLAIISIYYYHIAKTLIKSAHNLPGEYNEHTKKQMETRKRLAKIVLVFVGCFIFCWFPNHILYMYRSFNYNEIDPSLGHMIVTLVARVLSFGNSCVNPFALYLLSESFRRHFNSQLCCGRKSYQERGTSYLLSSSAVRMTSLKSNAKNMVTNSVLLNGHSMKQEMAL

On to neuromedin B (peptide), for which, in assay [1], the EC50 of NFAT-luciferase reporter activation in CHO cells expressing hNMBR is 0.16 nM.

Turning to “[D-Phe^6, ß-Ala^11, Phe^13, Nle^14]-Bombesin (6–14) (peptide)”, the EC50 of NFAT-luciferase reporter activation in CHO cells expressing hBRS3 in assay [2] was 8.8 nM.

The record behind these values is paper PMC4452343, “Monitoring β-arrestin recruitment via β-lactamase enzyme fragment complementation: purification of peptide E as a low-affinity ligand for mammalian bombesin receptors” (PLoS ONE, 2015).
